From patent publication US20170275357A1
Where two headings read alike, the source gives them in different places.

Legend:
[1] = molecular target: IL-23 alanine shave mutant M10 (human) (UniProt P29460); test: cell-based or functional assay
[2] = molecular target: IL-23 alanine shave mutant M7 (human) (UniProt P29460); test: cell-based or functional assay
[3] = molecular target: IL-23 alanine shave mutant M9 (human) (UniProt P29460); test: cell-based or functional assay
[4] = molecular target: wild-type IL-23 (His-tagged p19 / non-tagged p40) (human) (UniProt P29460); test: cell-based or functional assay
IL-23 D118A (human) [5] = molecular target: IL-23 D118A (human) (UniProt P29460); test: cell-based or functional assay
IL-23 D55A (human) [6] = molecular target: IL-23 D55A (human) (UniProt P29460); test: cell-based or functional assay
IL-23 E112A (human) [7] = molecular target: IL-23 E112A (human) (UniProt P29460); test: cell-based or functional assay
IL-23 H53A (human) [8] = molecular target: IL-23 H53A (human) (UniProt P29460); test: cell-based or functional assay
IL-23 L116A (human) [9] = molecular target: IL-23 L116A (human) (UniProt P29460); test: cell-based or functional assay
IL-23 M54A (human) [10] = molecular target: IL-23 M54A (human) (UniProt P29460); test: cell-based or functional assay
[11] = molecular target: wild-type IL-23 (His-tagged p19 / non-tagged p40) (human) (UniProt P29460); test: cell-based or functional assay; remark: listed apart in the source
IL-23 D118A (human) [12] = molecular target: IL-23 D118A (human) (UniProt P29460); test: SPR Biacore, antibody captured on protein A, single alanine mutants of IL-23
IL-23 D55A (human) [13] = molecular target: IL-23 D55A (human) (UniProt P29460); test: as above
IL-23 E112A (human) [14] = molecular target: IL-23 E112A (human) (UniProt P29460); test: as above
IL-23 H53A (human) [15] = molecular target: IL-23 H53A (human) (UniProt P29460); test: as above
IL-23 L116A (human) [16] = molecular target: IL-23 L116A (human) (UniProt P29460); test: as above
IL-23 M54A (human) [17] = molecular target: IL-23 M54A (human) (UniProt P29460); test: as above
[18] = molecular target: IL-23 alanine shave mutant M10 (human) (UniProt P29460); test: SPR Biacore T100, antibody captured on protein A, purified IL-23 variant, 1:1 Langmuir
[19] = molecular target: IL-23 alanine shave mutant M5 (human) (UniProt P29460); test: as above
[20] = molecular target: IL-23 alanine shave mutant M7 (human) (UniProt P29460); test: as above
[21] = molecular target: IL-23 alanine shave mutant M9 (human) (UniProt P29460); test: as above
[22] = molecular target: IL-23 alanine shave mutant M5 (human) (UniProt P29460); test: cell-based or functional assay

| Substance | IC50, IL-23 variant-induced pSTAT3 in BaF3/huIL-23Ra/huIL-12Rb1 transfectants [1] [pM] | IC50, IL-23 variant-induced pSTAT3 in BaF3/huIL-23Ra/huIL-12Rb1 transfectants [2] [pM] | IC50, IL-23 variant-induced pSTAT3 in BaF3/huIL-23Ra/huIL-12Rb1 transfectants [3] [pM] | IC50, IL-23 variant-induced pSTAT3 in BaF3/huIL-23Ra/huIL-12Rb1 transfectants [4] [pM] | IC50, IL-23 variant-induced pSTAT3 in BaF3/huIL-23Ra/huIL-12Rb1 transfectants (IL-23 D118A (human) [5]) | IC50, IL-23 variant-induced pSTAT3 in BaF3/huIL-23Ra/huIL-12Rb1 transfectants (IL-23 D55A (human) [6]) | IC50, IL-23 variant-induced pSTAT3 in BaF3/huIL-23Ra/huIL-12Rb1 transfectants (IL-23 E112A (human) [7]) | IC50, IL-23 variant-induced pSTAT3 in BaF3/huIL-23Ra/huIL-12Rb1 transfectants (IL-23 H53A (human) [8]) | IC50, IL-23 variant-induced pSTAT3 in BaF3/huIL-23Ra/huIL-12Rb1 transfectants (IL-23 L116A (human) [9]) | IC50, IL-23 variant-induced pSTAT3 in BaF3/huIL-23Ra/huIL-12Rb1 transfectants (IL-23 M54A (human) [10]) | IC50, IL-23 variant-induced pSTAT3 in BaF3/huIL-23Ra/huIL-12Rb1 transfectants [11] | ΔΔG (IL-23 D118A (human) [12]) [kcal/mol] | ΔΔG (IL-23 D55A (human) [13]) [kcal/mol] | ΔΔG (IL-23 E112A (human) [14]) [kcal/mol] | ΔΔG (IL-23 H53A (human) [15]) [kcal/mol] | ΔΔG (IL-23 L116A (human) [16]) [kcal/mol] | ΔΔG (IL-23 M54A (human) [17]) [kcal/mol] | ΔΔG [18] [kcal/mol] | ΔΔG [19] [kcal/mol] | ΔΔG [20] [kcal/mol] | further results |
| --- | --- | --- | --- | --- | --- | --- | --- | --- | --- | --- | --- | --- | --- | --- | --- | --- | --- | --- | --- | --- | --- |
| Merck's IL-23 p19 mAb (7G10) (antibody) | 350 | 310 | 260 | 380 | 0.22 nM | 0.18 nM | > 0.003 µM | 0.19 nM | 0.24 nM | 0.27 nM | 0.18 nM | -0.3 | 0.7 | 1.7 | 0 | 0.2 | 1 | 0.4 | 1.9 | 0.2 | ΔΔG [21]: 0.2 kcal/mol |
| STELARA (ustekinumab, IL-12/IL-23 p40 mAb) (antibody) | 71 | 59 | 67 | 79 | 52 pM | 77 pM | 33 pM | 78 pM | 54 pM | 81 pM | 67 pM | -0.3 | 0.5 | 0.3 | 0.3 | 0.5 | 0.3 | 0.3 | 0.1 | 0.1 | IC50, IL-23 variant-induced pSTAT3 in BaF3/huIL-23Ra/huIL-12Rb1 transfectants [22]: 62 pM; ΔΔG [21]: 0.1 kcal/mol |
